Source: publication PMC2174052 (The Journal of Cell Biology, 2002)

B1: GST–Sec2(aa 1–160)p (domain or fragment)
chain: MDASEEAKRVSIQVTSLSTQLIESVDKQSHLEEQLNKSLKTIASQKAAIENYNQLKEDYNTLKRELSDRDDEVKRLREDIAKENELRTKAEEEADKLNKEVEDLTASLFDEANNMVADARKEKYAIEILNKRLTEQLREKDTLLDTLTLQLKNLKKVMHS
B2: His6–Sec4p (natural protein)
chain: MSGLRTVSASSGNGKSYDSIMKILLIGDSGVGKSCLLVRFVEDKFNPSFITTIGIDFKIKTVDINGKKVKLQLWDTAGQERFRTITTAYYRGAMGIILVYDVTDERTFTNIKQWFKTVNEHANDEAQLLLVGNKSDMETRVVTADQGEALAKELGIPFIESSAKNDDNVNEIFFTLAKLIQEKIDSNKLVGVGNGKEGNISINSGSGNSSKSNCC
B3: His6–Ypt32p (natural protein)
chain: MSNEDYGYDYDYLFKIVLIGDSGVGKSNLLSRFTTDEFNIESKSTIGVEFATRTIEVENKKIKAQIWDTAGQERYRAITSAYYRGAVGALIVYDISKSSSYENCNHWLTELRENADDNVAVGLIGNKSDLAHLRAVPTDEAKNFAMENQMLFTETSALNSDNVDKAFRELIVAIFQMVSKHQVDLSGSGTNNMGSNGAPKGPTISLTPAPKEDKKKKSSNCC

Key:
Ypt32p = biological target: T1, Ypt32p (Saccharomyces cerevisiae, UniProt P51996); experiment: GTP hydrolysis; assay type: biochemical; settings: with stoichiometric Sec2p (GAP activity)
T1 sequence (P51996 2-222): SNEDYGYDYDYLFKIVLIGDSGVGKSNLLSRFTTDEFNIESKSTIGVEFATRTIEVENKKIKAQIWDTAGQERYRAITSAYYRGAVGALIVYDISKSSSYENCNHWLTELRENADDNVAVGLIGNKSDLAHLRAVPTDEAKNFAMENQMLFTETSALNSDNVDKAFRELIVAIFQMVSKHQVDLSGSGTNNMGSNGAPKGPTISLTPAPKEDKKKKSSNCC

His6–Sec4p = biological target: B2; experiment: pull-down
GST–Sec2p (full-length) = biological target: T2, GST–Sec2p (full-length) (S. cerevisiae, UniProt P17065 1-759); experiment: pull-down
T2 sequence: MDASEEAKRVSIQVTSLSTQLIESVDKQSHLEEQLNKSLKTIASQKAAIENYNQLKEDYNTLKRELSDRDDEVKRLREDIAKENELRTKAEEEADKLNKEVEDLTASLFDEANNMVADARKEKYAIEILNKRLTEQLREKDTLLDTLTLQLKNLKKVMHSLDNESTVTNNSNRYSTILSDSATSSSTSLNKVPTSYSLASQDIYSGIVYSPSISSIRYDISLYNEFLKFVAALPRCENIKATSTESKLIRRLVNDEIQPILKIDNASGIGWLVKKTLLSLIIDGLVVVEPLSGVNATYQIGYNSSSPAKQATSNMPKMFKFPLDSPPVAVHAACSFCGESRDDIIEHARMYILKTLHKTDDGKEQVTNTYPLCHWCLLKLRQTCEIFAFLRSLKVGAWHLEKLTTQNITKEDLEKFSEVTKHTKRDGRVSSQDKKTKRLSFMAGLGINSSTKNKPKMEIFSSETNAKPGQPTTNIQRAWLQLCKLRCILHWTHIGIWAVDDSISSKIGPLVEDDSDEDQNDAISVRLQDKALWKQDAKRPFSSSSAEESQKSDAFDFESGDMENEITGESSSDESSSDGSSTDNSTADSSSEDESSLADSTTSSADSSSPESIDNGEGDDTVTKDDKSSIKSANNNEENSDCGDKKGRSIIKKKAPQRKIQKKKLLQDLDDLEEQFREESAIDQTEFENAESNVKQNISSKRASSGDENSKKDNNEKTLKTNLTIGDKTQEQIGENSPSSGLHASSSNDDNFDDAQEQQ

GST–Sec2-59(aa 1–374)p = biological target: T3, GST–Sec2-59(aa 1–374)p (S. cerevisiae, UniProt P17065 1-374); experiment: pull-down
T3 sequence: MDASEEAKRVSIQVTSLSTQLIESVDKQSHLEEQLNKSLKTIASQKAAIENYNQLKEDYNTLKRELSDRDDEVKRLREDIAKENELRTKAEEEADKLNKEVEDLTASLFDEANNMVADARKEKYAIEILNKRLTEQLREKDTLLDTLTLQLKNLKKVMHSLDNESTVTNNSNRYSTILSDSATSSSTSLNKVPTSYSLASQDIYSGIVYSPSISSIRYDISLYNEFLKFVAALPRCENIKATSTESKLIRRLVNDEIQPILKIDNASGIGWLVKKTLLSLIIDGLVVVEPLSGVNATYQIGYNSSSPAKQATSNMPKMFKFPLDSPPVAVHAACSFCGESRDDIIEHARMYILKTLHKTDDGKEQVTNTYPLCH

GST–Sec2-70 (aa 1–508) = biological target: T4, GST–Sec2-70 (aa 1–508) (S. cerevisiae, UniProt P17065 1-508); experiment: pull-down
T4 sequence: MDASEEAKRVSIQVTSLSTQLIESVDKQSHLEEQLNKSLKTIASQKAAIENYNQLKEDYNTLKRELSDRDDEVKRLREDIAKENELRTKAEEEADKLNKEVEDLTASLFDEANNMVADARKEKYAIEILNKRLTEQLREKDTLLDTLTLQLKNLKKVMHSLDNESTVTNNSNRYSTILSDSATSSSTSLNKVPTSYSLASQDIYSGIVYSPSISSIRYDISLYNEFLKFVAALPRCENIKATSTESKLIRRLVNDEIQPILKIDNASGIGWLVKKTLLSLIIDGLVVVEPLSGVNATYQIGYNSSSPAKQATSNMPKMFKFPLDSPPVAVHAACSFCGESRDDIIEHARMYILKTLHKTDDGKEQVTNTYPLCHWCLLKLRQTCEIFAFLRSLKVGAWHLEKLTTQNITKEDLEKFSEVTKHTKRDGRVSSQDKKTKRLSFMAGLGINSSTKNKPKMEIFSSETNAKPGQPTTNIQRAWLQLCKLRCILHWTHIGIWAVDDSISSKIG

GST–Sec2(aa 161–759) = biological target: T5, GST–Sec2(aa 161–759) (S. cerevisiae, UniProt P17065 161-759); experiment: pull-down
T5 sequence: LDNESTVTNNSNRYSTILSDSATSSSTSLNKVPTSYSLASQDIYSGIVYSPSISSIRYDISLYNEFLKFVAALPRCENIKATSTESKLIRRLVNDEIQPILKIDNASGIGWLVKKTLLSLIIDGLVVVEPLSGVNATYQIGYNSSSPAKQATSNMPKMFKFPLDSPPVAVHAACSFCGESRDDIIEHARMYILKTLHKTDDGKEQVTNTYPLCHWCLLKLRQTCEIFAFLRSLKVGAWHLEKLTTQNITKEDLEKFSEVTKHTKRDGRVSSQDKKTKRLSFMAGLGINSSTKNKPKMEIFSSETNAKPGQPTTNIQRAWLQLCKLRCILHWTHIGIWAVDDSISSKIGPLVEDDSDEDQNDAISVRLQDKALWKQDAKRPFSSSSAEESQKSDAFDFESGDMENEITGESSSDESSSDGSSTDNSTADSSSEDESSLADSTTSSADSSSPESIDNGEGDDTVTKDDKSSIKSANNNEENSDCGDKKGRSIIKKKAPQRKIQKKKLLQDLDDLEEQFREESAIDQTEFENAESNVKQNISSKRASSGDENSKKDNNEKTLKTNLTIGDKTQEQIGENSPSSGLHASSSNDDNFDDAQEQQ

Question: With `Nc1nc2c(ncn2[C@@H]2O[C@H](COP(=O)(O)OP(=O)(O)OP(=O)(O)O)[C@@H](O)[C@H]2O)c(=O)[nH]1` [GTP] as the molecule, how does the GTP hydrolysis (Ypt32p) read?
Answer: Its GTP hydrolysis is “we observed a fivefold increase in GTP hydrolysis by Ypt32p (unpublished data)”.

Question: Does B1 bind (His6–Sec4p)?
Answer: Result: binds

Question: How did the “amount bound relative to Ypt32p (fold)” value (GST–Sec2p (full-length)) turn out when B2 was run?
Answer: The value was 4 fold.

Question: Which results are given for B3?
Answer: binding result (GST–Sec2-59(aa 1–374)p): binds; binding result (GST–Sec2p (full-length)): binds; binding result (GST–Sec2-70 (aa 1–508)): binds; binding result (GST–Sec2(aa 161–759)): binds
